The target of this test is T1, human interleukin-18 (human, UniProt Q14116 37-193).
T1 construct: Immobilised on plates in the ELISAs; also called human IL-18; IL-18
T1 sequence (looked up): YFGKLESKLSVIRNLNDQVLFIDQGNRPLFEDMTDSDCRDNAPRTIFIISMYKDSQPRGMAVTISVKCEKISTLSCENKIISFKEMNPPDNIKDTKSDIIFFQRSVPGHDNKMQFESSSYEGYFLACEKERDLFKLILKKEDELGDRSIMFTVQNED
The experiment in a line: phage ELISA, scFv-presenting phage on immobilised human IL-18 (HSA as comparison), anti-M13 detection, A405. Here is the method:
ELISA for screening separated clones was carried out by immobilizing human IL-18 on an ELISA plate. Specifically, 2 μg/ml of human IL-18 and 2.5 μg/ml of human serum albumin (HSA) were put in a 40 μL/well ELISA plate (Nunc), allowed to stand for 16 hours at 4° C., and then immobilized on the plate. For blocking, 400 μL/well of PBS solution containing 0.5% BSA, 0.5% gelatin, and 5% skim milk was put in the ELISA plate, and then allowed to stand for 2 hours at 4° C.
Next, into the ELISA plate, 40 μL/well of sample solution containing an scFV-presenting phage was poured, and the mixture was allowed to react. Thereafter, the sample solution was removed, and the product was washed 5 times by using a cleaning liquid. Subsequently, to the immobilized scFv phage, a biotin-labeled anti-M13 monoclonal antibody (Pharmacia biotech) was added, and the mixture was allowed to react with an alkaline phosphatase (AP)-labeled anti-mouse IgG antibody serving as a secondary antibody. The reaction liquid was washed 5 times by using a cleaning liquid.
A general note: An ELISA detects its analyte on a solid surface through an enzyme-linked reagent.

Here are results for 1 molecule from patent US20060292145A1 (JAPAN SCIENCE AND TECHNOLOGY, published 2006).

B1: human anti-human IL-18 scFv fragment h18-108 (scFv, V domains shown)
VH: QVQLVQSGAEVRRPGASVRVSCKASGYTFTSHYIHWVRQAPGQGLEWVAIINPSDGRTDYAQKFQGRVTVTRDTSASSVYMGISSLRSEDTAMYYCARTARGFSYATDWGQGTLVTVSS
VL: SYELTQPPSVSVSPGQTARITCSGDALPKKYAYWYQQKPGQAPVLVIYKDSERPSGIPERFSGSSSGTTVTLTISGVQAEDEADYYCQSADSSGTYVVFGGGTQLTVL
notes: Expressed in E. coli from pCANTAB5E and purified on anti-E tag antibody; By gel filtration 90% monomer, 10% dimer
Regarding B1, the binding result was “binds”.
